The values that follow come from article doi:10.1101/2024.07.08.601072.

pKd: −log10 of the molar value.

For this assay, the target named is H2A-H2B dimers (yeast) (yeast) (UniProt P04911). Kind of assay: native gel or EMSA. (In EMSA bound probe runs differently from free probe, usually more slowly.)

Turning to “Purified Tom1p (Tom1p-Protein A after Protein A removal) (from UniProt Q03280 1-3268) (enzyme)”, the pKd (as a rule, the negative decadic logarithm of the Kd, by convention in mol/L) is 6.48 to 6.80.
